A short description of data set [1]: PK of the parent molecule H-Nim in mice (LCMS of serum). In kind it is in vivo, female BALB/c athymic (nu+/nu+) mice. Particulars: 4.5 mg/kg IV. The procedure: Female BALB/c athymic (nu+/nu+) mice (n = 5) were used in the study. Mice were treated with a single bolus injection of H-Nim via the tail vein at 4.5 mg/kg. The blood samples were collected at 5, 10, 30, 60, and 120 min after treatment. Mice were anesthetized and decapitated to obtain the blood samples. Serum supernatant was collected and stored at −80 until analysis.
PK samples were analyzed by LCMS analysis. The retention time of H-Nim was approximately 25.4 min on the extracted ion chromatogram (XIC) and the protonated molecule of H-Nim was at m/z 279.

Data set [2] is described as follows: In vivo metabolite profiling (HPLC-MS with radio flow-through detector) of plasma, urine, feces, liver, tumor. Conditions: for free Nim or H-Nim in the biological samples evaluated: after [14C]CA102N 200 mg/kg IV.
Description: Samples were collected on days 0 through 10. […] The weights of all samples (except blood and plasma) were recorded and then stored at −70°C for later analysis.
Fecal and tissue homogenates were maintained at approximately −70°C for MET-ID analysis. The metabolite profiling in the biological samples from mice dosed with [14C]CA102N was performed by HPLC-tandem mass spectrometry coupled with a radio flow-through detector (RFD). The HPLC-MS/radio flow-through detector (RFD) consisted of a Shimadzu NexeraTM (Shimadzu, disseminated Japan) ultra-high pressure liquid chromatography system with two LC-30AD pumps, a SIL30AC autosampler, and a CTO-30A column oven; A Sciex TripleTOF 6600TM (Sciex, Framingham, MA) mass spectrometer; and a β-RAM Model 3 RFD. The mass spectrometer was controlled by Analyst TF 1.7TM (Sciex, Framingham, MA), and the RFD was controlled by Laura Lite 5TM (LabLogic Systems, Brandon, FL) software. The HPLC eluent was split between the RFD and mass spectrometer with a ratio of 3 to 1.
[14C]CA102N and its metabolites were separated using reverse-phase and hydrophilic interaction chromatography. Two HPLC methods were used to separate the metabolites and the parent molecule CA102N, using RFD and mass spectrometer simultaneously.
Retention times of the metabolites were determined from the radio-chromatograms. Mass spectra (MS and MS/MS) of metabolite standards (H-Nim, H-Nim Saccharide, H-Nim Disaccharide) were acquired and major fragment patterns were proposed. […] For other unknown metabolites, molecular ions were searched on LC-MS chromatograms at the same retention times as those found on an HPLC radio-chromatogram. The product/ion spectra were acquired for the corresponding molecular ions. Putative metabolite structures were proposed based on the analysis of their mass fragment patterns.
Data set [3] can be described thus: Quantitative Whole-Body Autoradiography (QWBA) tissue distribution of total radioactivity. In kind it is in vivo, female BALB/c athymic (nu+/nu+) HT-29 xenograft mice. On the procedure: Food and water were provided ad libitum.
Samples were collected on days 0 through 10.
The pinna, limbs, and tail were removed from each frozen carcass (Group 3) and the remaining carcass was embedded in an aqueous suspension of approximately 1% (w/v) carboxymethylcellulose and frozen into a block. The blocks were stored at approximately −20°C before sectioning. Each blocked carcass was mounted on a microtome stage (Leica CM3600 Cryomacrocut and/or a Vibratome 9800, Leica Corp., Nussloch, Germany) and maintained at approximately −20°C. Sections were collected and allowed to dry by sublimation in the cryomicrotome at −20°C for at least 48 h. A set of sections for each mouse was mounted on a cardboard backing, covered with a thin plastic wrap, and exposed along with calibration standards of [14C]-glucose mixed with blood at 10 different concentrations to a [14C]-sensitive phosphor imaging plate (Fuji Biomedical, Stamford, CT). The imaging plates and sections were placed in light-tight exposure cassettes, for a 4-day (96 h) exposure at room temperature. The imaging plates were scanned using the GE Healthcare Typhoon FLA 9500 image acquisition system (GE/Molecular Dynamics, Sunnyvale, CA, United States). Quantification was performed by image dosimetry using MCID image analysis software (Version 7.0, Interfocus Imaging Ltd., Linton, Cambridge, United Kingdom). A standard curve was constructed from the integrated response (MDC/mm2) and the nominal concentrations of the [14C]-calibration standards. The concentrations of radioactivity were expressed as the µg equivalents of CA102N per gram sample (µg equiv/g).
The following calculations were used to determine the µg equivalents/mL, or/g and % percent of dose in the tissue: µg equivalents/mL=µCi/mL/Specific Activity DosedµCi/mL µg equivalents/g=DPM of the sample×1/MassTissueg/Specific Activity of the radiolabeled moleculeDPM/g Percent of dose in tissue=µg eq in tissue×100/Specific Activity DosedμCi/μg
Autoradioluminographic image data were calibrated using response curves that were generated using a weighted, 1st-degree, polynomial, linear equation (1/MDC/mm^2). A numerical estimate of the goodness of fit was given by the relative error, where the absolute value for the relative error of each calibration standard must have been ≤0.250 to be accepted.
The LLOQ and ULOQ were set using calibration standard concentration values of 0.0003 and 20.973 μCi/g, respectively, which were widely proven values ([Kolbe and Dietzel, 2000]) that were verified during the QWBA system validation ([Solon and Lee, 2002]).

Data set [4] concerns HT-29 xenograft. Set-up: method as in Lin et al., 2017. Particulars: 200 or 400 mg/kg weekly (QW) or three times a week (TIW); ref Lin et al., 2017; cited from earlier work.
For data set [5] the following is noted: mouse, in vivo.
Description: Female BALB/c athymic (nu+/nu+) mice (n = 48) were generated by Taconic (Germantown, NY). Mice (18–22 g) were acclimated for at least 3 days before subcutaneous implantation of 1 × 10^7 HT-29 colorectal carcinoma (ATCC number HTB38) cells in 100 μL 50:50 matrigel: PBS. Tumors were allowed to grow to 200–500 mm^3 sizes before initiating the study. Each animal was assigned a permanent identification number, and identified with a tail mark before being placed on the study. Food and water were provided ad libitum. Animal rooms were controlled to maintain a temperature of 68°F–79°F, and 20%–70% relative humidity, with a 12 h light/12 h dark cycle. Observations were recorded for all animals pre-dose and at least once daily post-dose. Mice were randomized into 3 groups and housed (n = 3 per cage) in metabolism cages (Group 1, n = 9) or shoebox cages (Group 2, n = 29 and Group 3, n = 10). […] Urine, feces, cage residue, blood/plasma, tissue samples, and carcasses were collected from different groups for Mass Balance (MB), Metabolite Identification (MET-ID), Pharmacokinetics (PK), and Quantitative Whole-Body Autoradiography (QWBA) studies.
Samples were collected on days 0 through 10. […] Blood samples were collected via cardiac puncture (Group 2), into EDTA-containing tubes at 0 (pre-dose), 0.5, 2, 8, 24, 48, 72, 120,168, 240, and 336 h after the dose, and plasma samples were harvested on wet ice for PK analysis. […] The weights of all samples (except blood and plasma) were recorded and then stored at −70°C for later analysis.
Radioactivity in diluted formulations, plasma, and urine, was quantitated by mixing with a liquid scintillator, Ultima Gold scintillation cocktail (5 mL, PerkinElmer). Samples were analyzed by LSC for total radioactivity content.
Nominal times were used for pharmacokinetic calculations. Phoenix® WinNonlin®, (version 6.3, Pharsight Corporation, Mountain View, CA, United States) noncompartmental pharmacokinetic analysis was used to determine PK parameters [Maximal concentration (Cmax), Time of maximal concentration (Tmax), Terminal half-life (t1/2), area under the curve to infinity observed (AUCinf obs [µg equiv·h/g]), and area under the curve all observed points (AUCall [µg equiv·h/g])]. The acceptance criteria for the terminal half-life (t1/2) estimation used regression of at least three time points. […] Plasma concentrations are expressed as µg equivalents (equiv)/g (assume 1 mL = 1 g).
For data set [6] the following is noted: in vivo; cited from earlier work.
For data set [7] the following is noted: mouse, in vivo. The source holds these as a separate data set.
Description: Female BALB/c athymic (nu+/nu+) mice (n = 48) were generated by Taconic (Germantown, NY). Mice (18–22 g) were acclimated for at least 3 days before subcutaneous implantation of 1 × 10^7 HT-29 colorectal carcinoma (ATCC number HTB38) cells in 100 μL 50:50 matrigel: PBS. Tumors were allowed to grow to 200–500 mm^3 sizes before initiating the study. Each animal was assigned a permanent identification number, and identified with a tail mark before being placed on the study. Food and water were provided ad libitum. Animal rooms were controlled to maintain a temperature of 68°F–79°F, and 20%–70% relative humidity, with a 12 h light/12 h dark cycle. Observations were recorded for all animals pre-dose and at least once daily post-dose. Mice were randomized into 3 groups and housed (n = 3 per cage) in metabolism cages (Group 1, n = 9) or shoebox cages (Group 2, n = 29 and Group 3, n = 10). Each mouse received a single bolus injection of CA102N via the tail vein. Urine, feces, cage residue, blood/plasma, tissue samples, and carcasses were collected from different groups for Mass Balance (MB), Metabolite Identification (MET-ID), Pharmacokinetics (PK), and Quantitative Whole-Body Autoradiography (QWBA) studies.
Samples were collected on days 0 through 10. […] The weights of all samples (except blood and plasma) were recorded and then stored at −70°C for later analysis. […]
Radioactivity in diluted formulations, plasma, and urine, was quantitated by mixing with a liquid scintillator, Ultima Gold scintillation cocktail (5 mL, PerkinElmer). Samples were analyzed by LSC for total radioactivity content. […] The resulting 14CO2 liberated during combustion was trapped in CarboSorb® and Perma-Fluor® scintillation cocktail was added automatically to the samples before total radioactivity measurement by LSC.
All LSC analyses were performed using a liquid scintillation analyzer (Perkin Elmer Model 2800TR or Model 2900TR). […] Data were corrected to the background by subtracting the dpm value measured from the analysis of blank samples (cocktail only).

As usually defined, the half-life is how long it takes for the measured level to halve. In the case of `CS(=O)(=O)Nc1ccc(N)cc1Oc1ccccc1` [H-Nim], the half-life in data set [1] is listed as below 5 min. For the same molecule, the “serum concentration at any time point greater than 5 min” value in data set [1] (detection limit 0.1 μg/mL) is recorded as “not detectable”. Moreover, in data set [1] (5 min), the serum concentration was found to be 142 ng/mL. Further, in data set [2], the “free Nim or H-Nim in the biological samples evaluated” value is recorded as “No free Nim or H-Nim are determined”.
With `CC(=O)NC1C(O)OC(CO)C(O)C1OC1OC(C(=O)Nc2ccc(NS(C)(=O)=O)c(Oc3ccccc3)c2)C(O)C(O)C1O` (stereo not drawn) [M1], in data set [2] (Group 1, 200 mg/kg IV), the “excretion by component, Feces, percent of dose” value turned out to be 13.20% and the “excretion by component, Total, percent of dose” value was determined as 13.2%. The “metabolite in fecal extracts” value in data set [2] (pooled 0 to 120 h) is “primary metabolite”.
As to `CC(=O)NC1C(O)OC(CO)C(O)C1OC1OC(C(=O)Nc2ccc(NS(C)(=O)=O)c(Oc3ccccc3)c2)C(OC2OC(CO)C(O)C(OC3OC(C(=O)O)C(O)C(O)C3O)C2NC(C)=O)C(O)C1O` (stereo not drawn) [M1037], the “metabolite in liver and tumor extracts” value in data set [2] (240 h post-dose) is “dominant metabolite”. Also, in data set [2] (Group 1, 200 mg/kg IV), the “excretion by component, Liver + Tumor, percent of dose” value turned out to be 4.40% and the “excretion by component, Total, percent of dose” value is recorded as 4.4%.
Turning to `CS(=O)(=O)Nc1ccc([N+](=O)[O-])cc1Oc1ccccc1` [Nimesulide, reference compound], the “free Nim or H-Nim in the biological samples evaluated” value in data set [2] is listed as “No free Nim or H-Nim are determined”.
On to “N-(4-Amino-2-phenoxyphenyl) methanesulfonamide-graft-poly (β-D-(1, 3) glucuronic acid-β-D-(1, 4)-N-acetylglucosamine) conjugate [CA102N]”, for which, in data set [3] (200 mg/kg IV), the “lowest relative tissue concentrations: white adipose, brain, spinal cord, bone tissue, eye lens, mammary gland region, skeletal muscle” value is recorded as below 60 μg equiv/g. The “half-life of release of CA102N and its metabolites from tumor sites” value in data set [3] (mouse, in vivo) is given as 74.2 h. Further, in data set [3] (mouse, in vivo, iv, 200 mg/kg), the “tissue-to-blood ratio, Blood (cardiac)” value is reported as 1.00; the “total radioactivity, adrenal Gland” value stood at 429.979 μg equiv/g; the “total radioactivity, thyroid” value stood at 469.62 μg equiv/g. Moreover, the “tumor burden compared to vehicle-treated controls” value in data set [4] is “significant reduction in tumor burden”. Besides, in data set [5], the “systemic plasma clearance (CL)” value stood at 0.2 mL/min/kg and the “volume of distribution at steady state (Vss)” value came out at 0.1 L/kg. In data set [5] (iv, 200 mg/kg), the “AUC 0-inf_obs” value is 18332.4 μg equiv/ml*h, the “AUC 0-t” value worked out at 18329.2 μg equiv/ml*h, the “AUC 0-t/0-inf_obs” value was 0.99 and the AUClast was 18,332.4 μg equiv/ml*h. Further, in data set [5] (iv, 200 mg/kg), the “AUMC 0-inf_obs” value was 161062.0 μg equiv/ml*h^2, the C0 stood at 1985.6 μg equiv/ml, the Cl_obs is listed as 0.01 (mg)/(μg equiv/ml)/h and the Clast_obs/Cmax came to 5.5E-05. In data set [5] (iv, 200 mg/kg), the Lambda_z was 0.03 h⁻¹, the “MRT 0-inf_obs” value is 8.7 h, the Vss_obs is 0.09 (mg)/(μg/mL) and the Vz_obs is reported as 0.3 (mg)/(μg equiv/ml). Also, the mean plasma radioactivity in data set [5] (iv, 200 mg/kg) is 1.073 µg equivalents/mL. In data set [6], the hepatotoxicity entry is “absence of hepatotoxicity”. In data set [7], the “cage rinses, wash, and wipe combined, percent of dose” value came to 20%; the “radioactivity elimination through urine, average percent of dose (abstract)” value is reported as 77%; the “total dose eliminated within the first 24 h” value was “Around 60%”.

The values above are taken from article PMC11655901, “Mass balance, metabolic disposition, and pharmacokinetics of a single IV dose of [14C]CA102N in HT-29 xenograft athymic nude mice” (Frontiers in Pharmacology, 2024).
